Measured values from publication PMC5552905, “Mechanisms of peptide sex pheromone regulation of conjugation in Enterococcus faecalis” (MicrobiologyOpen, 2017).
“Also recorded” adds a separate entry of the source. Read-outs that look alike come from different tables or passages of the source.

Tests used:
[1] = test system: XBS1 and XBS2 operator sites; conditions: apo-PrgX, ref Bae et al., 2002, cited from earlier work
Text: We determined effects of C and I on PrgX‐DNA binding using in vitro electrophoretic mobility shift assays (EMSAs).

[2] = test system: +10 probe (10 bp inserted between XBS1 and XBS2 sites); type: binding, Enterococcus faecalis (plasmid pCF10)
Text: (§1) The LT DNA template containing XBS1 and XBS2 sites (LT DNA, pCF10 sequence from nt 8029 to nt8185 (Hirt et al., 2005)) was PCR amplified from pCF10 using primers as described in. The XBS1 DNA template only has XBS1 site (pCF10 sequence 8029–8131nt) was made by annealing oligos ‐129/‐47‐F (5′[…] 3′) and −129/−47R (5′[…] 3′) to obtain double‐stranded DNA. The XBS2 DNA template only has the XBS2 site (pCF10 sequence from 8109 to 8290; −66 to +114 relative to the prgQ transcription initiation site), and was PCR amplified from pCF10 using primers as described in Caserta et al., 2012. In DNA templates with 5‐bp or 10‐bp insertions, sequence GTACC or […] was inserted between XBS1 and XBS2 sites and at a position of 6‐bp after the XBS1 site. DNA probes were labeled at the 3′‐ends with DIG‐11‐ddUTP using the DIG Gel Shift kit (Roche) by following the manufacturer's instructions. EMSA assays were performed in 20 μl reactions: DIG‐labeled DNA, purified proteins, 1 μg of poly‐[d(A‐T)], 0.1 μg of poly‐L‐lysine, 1 × reaction buffer (20 mmol L^−1 Tris‐HCl, pH 7.9, 0.1 mol L^−1 NaCl, 0.1 mmol L^−1 EDTA, 10% glycerol, 0.01 mol L^−1 MgCl2). The reactions were incubated at room temperature for 15 min and loaded onto 5% polyacrylamide gels in 1 × TBE buffer (Tris, Borate, EDTA, pH 7.9). […]

[3] = test system: +5 probe (5 bp inserted between XBS1 and XBS2 sites)
Text: as §1

[4] = test system: P Q (prgQ promoter) lacZ reporter; test: β-galactosidase assay of P Q-lacZ reporter (pBK2, pBK2 + 5, pBK2 + 10) in E. faecalis; type: cell-based, Enterococcus faecalis; conditions: 10 ng/ml of C, 30 min at 37°C, PrgX in trans from pCF10, one experiment representative of three
Method: To construct plasmids pBK2 + 5 and pBK2 + 10, the intergenic region between prgQ and prgX was excised from plasmids pBKAdd5 and pBKAdd10 and was cloned into pBK2 using enzymes XhoI and BamHI. Plasmids pBKAdd5 and pBKAdd10 (have the 5‐bp and 10‐bp sequence inserted between XBS1 and XBS2 sites (Kozlowicz, 2005).
E. faecalis cultures were grown overnight in M9‐YEG broth at 37°C with selective antibiotics. Cultures were then diluted 1:10 in fresh medium and grown for 90 min at 37°C. For induction, a final concentration of 10 ng/ml of C was added and cells were incubated for additional 30 min at 37°C. A modified Miller assay was performed as previously described (Kozlowicz, Bae, & Dunny, 2004).
To examine the effects of looping in vivo, we introduced the +5 and +10 base pair insertions between XBS1 and XBS2 sites on the reporter plasmid pBK2, which has a pheromone‐inducible lacZ reporter gene fused downstream from P Q. This enables transcription from P Q to be monitored by measuring β‐galactosidase activity in cell extracts. We transformed these constructs into either OG1Sp or OG1Sp/pCF10 (to provide PrgX protein in trans) and the resulting strains were assayed for β‐galactosidase production in the presence or absence of C.
Figure 4 Expression of β‐galactosidase from E. faecalis cells containing pBK2, pBK2 + 5, and pBK2 + 10. […]

[5] = test system: LT DNA (containing XBS1 and XBS2 sites); type: binding, Enterococcus faecalis (plasmid pCF10)
Text: (§2) The LT DNA template containing XBS1 and XBS2 sites (LT DNA, pCF10 sequence from nt 8029 to nt8185 (Hirt et al., 2005)) was PCR amplified from pCF10 using primers as described in. The XBS1 DNA template only has XBS1 site (pCF10 sequence 8029–8131nt) was made by annealing oligos ‐129/‐47‐F (5′[…] 3′) and −129/−47R (5′[…] 3′) to obtain double‐stranded DNA. The XBS2 DNA template only has the XBS2 site (pCF10 sequence from 8109 to 8290; −66 to +114 relative to the prgQ transcription initiation site), and was PCR amplified from pCF10 using primers as described in Caserta et al., 2012. In DNA templates with 5‐bp or 10‐bp insertions, sequence GTACC or […] was inserted between XBS1 and XBS2 sites and at a position of 6‐bp after the XBS1 site. DNA probes were labeled at the 3′‐ends with DIG‐11‐ddUTP using the DIG Gel Shift kit (Roche) by following the manufacturer's instructions. EMSA assays were performed in 20 μl reactions: DIG‐labeled DNA, purified proteins, 1 μg of poly‐[d(A‐T)], 0.1 μg of poly‐L‐lysine, 1 × reaction buffer (20 mmol L^−1 Tris‐HCl, pH 7.9, 0.1 mol L^−1 NaCl, 0.1 mmol L^−1 EDTA, 10% glycerol, 0.01 mol L^−1 MgCl2). The reactions were incubated at room temperature for 15 min and loaded onto 5% polyacrylamide gels in 1 × TBE buffer (Tris, Borate, EDTA, pH 7.9). After electrophoresis at 100 V for 1.5 h, the DNA–protein complexes and DNA probes were electrotransferred onto a nylon membrane (Roche) at 6 V for 2 h using the GENIE electrophoretic blotter (Idea Scientific). DIG‐labeled DNA fragments were visualized by an enzyme immunoassay (DIG Gel Shift Kit, Roche) following the manufacturer's instructions. […] For the experiments reported here the powdered form of the peptides were initially solubilized in pure DMF at 0.5 mg/ml, and then diluted 10‐fold in KPBS for use as a working stock solution, which was diluted into the EMSA reactions to a final peptide concentration of 40 nmol L^−1.

LT DNA (prgQ promoter) = type: binding, Enterococcus faecalis (plasmid pCF10)
Text: as §2

[6] = test system: LT DNA (XBS1 and XBS2 operator sites), P Q promoter region; type: binding, Enterococcus faecalis (plasmid pCF10); conditions: LT DNA 8 fmol; PrgX 38-568 nmol L^−1 preincubated 5 min at room temperature with 40 nmol L^−1 peptide (C, I)
Text: as §2
EMSA assays were performed using 8 fmol of digoxigenin‐labeled LT DNA probes with increasing amounts of PrgX protein. PrgX was preincubated for 5‐min at room temperature with 40 nmol L^−1 of C (a) or I (b) before adding LT DNA. PrgX concentrations: lanes 2 and 6: 38 nmol L^−1; lanes 3 and 7: 76 nmol L^−1; lanes 4 and 8: 190 nmol L^−1; lanes 5 and 9: 568 nmol L^−1. (c) Cartoon showing the predicted products formed by binding PrgX to LT DNA.

P Q (prgQ promoter) = conditions: purified PrgX, no peptide, ref Caserta et al., 2012, cited from earlier work
Text: The target of PrgX‐peptide‐mediated regulation is the prgQ promoter (P Q), which controls expression of the majority of factors involved in pCF10 conjugation. PrgX binds specifically to two operator sites (XBS1 and XBS2) in the P Q region between prgX and prgQ. Because the lower‐affinity XBS2 site overlaps PQ, occupancy of XBS2 by PrgX could impede RNA polymerase binding to the promoter. Based on genetic and structural data, it was proposed that pairs of PrgX dimers could bind to XBS1 and XBS2, with the intervening DNA forming a loop that is stabilized by protein–protein interactions between t ... || It is interesting to consider transcription regulation in the pCF10 system by PrgX in relation to other well‐studied bacterial transcription factors. Many of the canonical transcription factors such as LacI are present in very low concentrations, and are modulated by low molecular weight ligands (co‐repressors, etc.) that are generally more abundant (Muller‐Hill, 1998). In contrast, wild‐type E. faecalis cells carrying pCF10 contain a large excess of PrgX (~15‐fold ratio of X dimers/XBSs) (Caserta et al., 2012), while the extracellular (and probably intracellular) concentrations of the peptide ...

[7] = test system: B2 m1 DNA probe (XBS2 sequence changed); test: EMSA: PrgX and RNAP binding to B2 m1 probe (mutated XBS2); set-up: species or system Enterococcus faecalis (plasmid pCF10); conditions: PrgX 18, 54 nmol L^−1; RNAP 200, 240 nmol L^−1; RT, 15 min
Text: as §1

B1: PrgX: master transcription regulator PrgX, a repressor of transcription of the prgQ operon; apo form is a dimer in solution (protein)
chain: MFKIGSVLKQIRQELNYHQIDLYSGIMSKSVYIKVEADSRPISVEELSKFSERLGVNFFEILNRAGMNTKSVNETGKEKLLISKIFTNPDLFDKNFQRIEPKRLTSLQYFSIYLGYISIAHHYNIEVPTFNKTITSDLKHLYDKRTTFFGIDYEIVSNLLNVLPYEEVSSIIKPMYPIVDSFGKDYDLTIQTVLKNALTISIMNRNLKEAQYYINQFEHLKTIKNISINGYYDLEINYLKQIYQFLTDKNIDSYLNAVNIINIFKIIGKEDIHRSLVEELTKISAKEKFTPPKEVTMYYENYVAIENNPIPEIKEQS
modifications: left off: His tag, end not stated, kept
notes: master transcription regulator PrgX, a repressor of transcription of the prgQ operon; apo form is a dimer in solution
[1]; listed as Apo‐PrgX
  relative affinity for XBS1 vs XBS2 / binding to probes lacking XBS1: binds to XBS1 with relatively higher affinity than to XBS2
[1]; listed as apo‐PrgX
  relative affinity for XBS1 vs XBS2 / binding to probes lacking XBS1: reduced binding of apo‐PrgX to DNA probes lacking XBS1 and virtually no supershifted species resembling Band II
[2]
  shift of +10 probe (band I / band II): binding profile was similar to LT DNA wild‐type probe
[3]
  shift of +5 probe (band I / band II): shifted the probe nearly completely to band I, with no distinct supershifted band II
[4]; pBK2 + 5
  lacZ expression (β-galactosidase), 5 bp insertion construct: no effect on lacZ activity
[4]; pBK2 + 10
  lacZ expression (β-galactosidase), 10 bp insertion construct: β‐galactosidase expression was repressed
[5]
  fold higher K D of PrgX dimer to XBS1 site: about 10 fold
  fold higher K D of PrgX dimers bound to XBS2: ~1000 fold
[5]; EMSA densitometry, two-site binding polynomial, apo-PrgX (dimer) on LT DNA, mean ± SD of three independent EMSA experiments, read-out: K xbs1: K D of binding to XBS1 site
  Kd: 4.04 ± 3.36 nM
LT DNA (prgQ promoter)
  effect on LT DNA shifts / RNAP binding: formation of the high‐molecular‐weight RNAP‐DNA species was nearly eliminated; also recorded: hinders RNAP binding to prgQ promoter
[6]
  effect on PrgX-DNA binding: shifted complexes, amount of band II (supershift): bound to the LT, producing two‐shifted complexes: band I and band II
P Q (prgQ promoter)
  repression of P Q in vitro: directly represses P Q
P Q (prgQ promoter); listed as apo‐PrgX
  repression of P Q in vitro: repress prgQ transcription in vitro
[7]
  binding to B2 m1 probe: produced the band I shift, however, there was a dramatic reduction in band II
